This is an account of results in patent US20140087995A1 (published 2014).

In assay [1] the target is T1, human calcitonin receptor (human, UniProt P30988 25-474).
T1 construct: whole, on cells; Used as cell membranes; also called hCTR; hCT
T1 sequence (looked up): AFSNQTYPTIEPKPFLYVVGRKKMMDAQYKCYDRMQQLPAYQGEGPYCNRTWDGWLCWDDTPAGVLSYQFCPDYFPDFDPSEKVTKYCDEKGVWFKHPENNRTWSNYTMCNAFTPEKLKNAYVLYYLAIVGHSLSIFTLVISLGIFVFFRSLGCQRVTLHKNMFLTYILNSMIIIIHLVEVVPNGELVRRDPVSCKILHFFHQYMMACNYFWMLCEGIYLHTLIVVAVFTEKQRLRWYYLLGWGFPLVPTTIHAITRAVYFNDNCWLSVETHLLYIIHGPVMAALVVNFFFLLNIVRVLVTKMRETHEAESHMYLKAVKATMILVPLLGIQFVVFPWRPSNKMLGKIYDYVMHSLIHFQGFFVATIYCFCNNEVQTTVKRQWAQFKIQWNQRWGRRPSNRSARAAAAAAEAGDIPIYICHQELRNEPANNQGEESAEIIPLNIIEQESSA
Description: SPA competition on BHK cell membranes, 125I-calcitonin as radioligand (Assay VII). In outline:
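BHK hCTR membranes 35 ng/μL + SPA beads 0.05 mg/well; buffer 50 mM Hepes pH 7.4, 1 mM CaCl2, 5 mM MgCl₂, 0.1% OA, 0.02% Tween20. 120 min, 25° C., shaking. Scintillation count; IC50 by one-site binding competition.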

In assay [2] the target is T1, human calcitonin receptor. Description: ratio of hCTR IC50 to hAmylin-R IC50 (reference: human amylin receptor). An outline of the steps:
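IC₅₀ values were derived by one-site competition analysis of SPA counts. Cell membranes (35 ng/μL) with SPA beads were incubated with test compounds for 120 min at 25° C in Hepes buffer, pH 7.4, containing CaCl2, MgCl₂, OA and Tween20.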

Numbered stars: 1 amine (or outer) side, 2 acyl side, 3 side chain; on linkers, the order of the positions; unused ones are H or OH. Bridge positions count the residues as written; N and C are the ends. Side chains are listed from the residue outwards. Ends that are not written are not given here. * marks the point of attachment. C20 diacid = O=C(O)CCCCCCCCCCCCCCCCCCC(=O)*; γGlu = O=C(O)[C@H](CCC(=O)[*:2])N[*:1]; AEEA = NCCOCCOCC(=O)O

B1: N^ε1-[2-[2-[2-[[(4S)-4-carboxy-4-(19-carboxynonadecanoylamino)butanoyl]amino]ethoxy]ethoxy]acetyl]-[Thr14,Arg17,Pro21,Pro27,Pro31]-h-amylin (peptide)
peptide: K([AEEA-γGlu-C20 diacid])CNTATCATQRLATFLRHSSPNFGAIPSSTPVGSNTY-NH2
modifications: disulfide 2-7; N-terminus assumed
SMILES: CC[C@H](C)[C@H](NC(=O)[C@H](C)NC(=O)CNC(=O)[C@H](Cc1ccccc1)NC(=O)[C@H](CC(N)=O)NC(=O)[C@@H]1CCCN1C(=O)[C@H](CO)NC(=O)[C@H](CO)NC(=O)[C@H](Cc1c[nH]cn1)NC(=O)[C@H](CCCNC(=N)N)NC(=O)[C@H](CC(C)C)NC(=O)[C@H](Cc1ccccc1)NC(=O)[C@@H](NC(=O)[C@H](C)NC(=O)[C@H](CC(C)C)NC(=O)[C@H](CCCNC(=N)N)NC(=O)[C@H](CCC(N)=O)NC(=O)[C@@H](NC(=O)[C@H](C)NC(=O)[C@@H]1CSSC[C@H](NC(=O)[C@@H](N)CCCCNC(=O)COCCOCCNC(=O)CC[C@H](NC(=O)CCCCCCCCCCCCCCCCCCC(=O)O)C(=O)O)C(=O)N[C@@H](CC(N)=O)C(=O)N[C@@H]([C@@H](C)O)C(=O)N[C@@H](C)C(=O)N[C@@H]([C@@H](C)O)C(=O)N1)[C@@H](C)O)[C@@H](C)O)C(=O)N1CCC[C@H]1C(=O)N[C@@H](CO)C(=O)N[C@@H](CO)C(=O)N[C@H](C(=O)N1CCC[C@H]1C(=O)N[C@H](C(=O)NCC(=O)N[C@@H](CO)C(=O)N[C@@H](CC(N)=O)C(=O)N[C@H](C(=O)N[C@@H](Cc1ccc(O)cc1)C(N)=O)[C@@H](C)O)C(C)C)[C@@H](C)O
notes: also called compound 75
A word on the IC50: it is the concentration that inhibits the measured activity by half. Take B1: the IC50 in assay [1] amounted to 60.9 nM. Moreover, in assay [2], the “Ratio hCT/hAmylin binding” value was determined as 91.4.

B2: N^ε1-[(4S)-4-carboxy-4-(19-carboxynonadecanoylamino)butanoyl]-[Glu14,Arg17,Pro21,Pro27,Arg34,Glu35]-h-amylin (peptide)
peptide: K([γGlu-C20 diacid])CNTATCATQRLAEFLRHSSPNFGAIPSSTNVGRETY-NH2
modifications: disulfide 2-7; N-terminus assumed
SMILES: CC[C@H](C)[C@H](NC(=O)[C@H](C)NC(=O)CNC(=O)[C@H](Cc1ccccc1)NC(=O)[C@H](CC(N)=O)NC(=O)[C@@H]1CCCN1C(=O)[C@H](CO)NC(=O)[C@H](CO)NC(=O)[C@H](Cc1c[nH]cn1)NC(=O)[C@H](CCCNC(=N)N)NC(=O)[C@H](CC(C)C)NC(=O)[C@H](Cc1ccccc1)NC(=O)[C@H](CCC(=O)O)NC(=O)[C@H](C)NC(=O)[C@H](CC(C)C)NC(=O)[C@H](CCCNC(=N)N)NC(=O)[C@H](CCC(N)=O)NC(=O)[C@@H](NC(=O)[C@H](C)NC(=O)[C@@H]1CSSC[C@H](NC(=O)[C@@H](N)CCCCNC(=O)CC[C@H](NC(=O)CCCCCCCCCCCCCCCCCCC(=O)O)C(=O)O)C(=O)N[C@@H](CC(N)=O)C(=O)N[C@@H]([C@@H](C)O)C(=O)N[C@@H](C)C(=O)N[C@@H]([C@@H](C)O)C(=O)N1)[C@@H](C)O)C(=O)N1CCC[C@H]1C(=O)N[C@@H](CO)C(=O)N[C@@H](CO)C(=O)N[C@H](C(=O)N[C@@H](CC(N)=O)C(=O)N[C@H](C(=O)NCC(=O)N[C@@H](CCCNC(=N)N)C(=O)N[C@@H](CCC(=O)O)C(=O)N[C@H](C(=O)N[C@@H](Cc1ccc(O)cc1)C(N)=O)[C@@H](C)O)C(C)C)[C@@H](C)O
Regarding B2, the IC50 in assay [1] was determined as 6.62 nM. For the same molecule, the “Ratio hCT/hAmylin binding” value in assay [2] was found to be 28.5.

B3: N^ε1-[(4S)-4-carboxy-4-(19-carboxynonadecanoylamino)butanoyl]-[Arg17,Pro21,Pro27,Arg34]-h-amylin (peptide)
peptide: K([γGlu-C20 diacid])CNTATCATQRLANFLRHSSPNFGAIPSSTNVGRNTY-NH2
modifications: disulfide 2-7; N-terminus assumed
SMILES: CC[C@H](C)[C@H](NC(=O)[C@H](C)NC(=O)CNC(=O)[C@H](Cc1ccccc1)NC(=O)[C@H](CC(N)=O)NC(=O)[C@@H]1CCCN1C(=O)[C@H](CO)NC(=O)[C@H](CO)NC(=O)[C@H](Cc1c[nH]cn1)NC(=O)[C@H](CCCNC(=N)N)NC(=O)[C@H](CC(C)C)NC(=O)[C@H](Cc1ccccc1)NC(=O)[C@H](CC(N)=O)NC(=O)[C@H](C)NC(=O)[C@H](CC(C)C)NC(=O)[C@H](CCCNC(=N)N)NC(=O)[C@H](CCC(N)=O)NC(=O)[C@@H](NC(=O)[C@H](C)NC(=O)[C@@H]1CSSC[C@H](NC(=O)[C@@H](N)CCCCNC(=O)CC[C@H](NC(=O)CCCCCCCCCCCCCCCCCCC(=O)O)C(=O)O)C(=O)N[C@@H](CC(N)=O)C(=O)N[C@@H]([C@@H](C)O)C(=O)N[C@@H](C)C(=O)N[C@@H]([C@@H](C)O)C(=O)N1)[C@@H](C)O)C(=O)N1CCC[C@H]1C(=O)N[C@@H](CO)C(=O)N[C@@H](CO)C(=O)N[C@H](C(=O)N[C@@H](CC(N)=O)C(=O)N[C@H](C(=O)NCC(=O)N[C@@H](CCCNC(=N)N)C(=O)N[C@@H](CC(N)=O)C(=O)N[C@H](C(=O)N[C@@H](Cc1ccc(O)cc1)C(N)=O)[C@@H](C)O)C(C)C)[C@@H](C)O
notes: also called compound 79
Regarding B3, the IC50 in assay [1] stood at 36.4 nM. For the same molecule, the “Ratio hCT/hAmylin binding” value in assay [2] is 46.1.

B4: N^ε1-[(4S)-4-carboxy-4-(19-carboxynonadecanoylamino)butanoyl]-[Arg14,Arg17,Pro21,Pro27,Pro34]-h-amylin (peptide)
peptide: K([γGlu-C20 diacid])CNTATCATQRLARFLRHSSPNFGAIPSSTNVGPNTY-NH2
modifications: disulfide 2-7; N-terminus assumed
SMILES: CC[C@H](C)[C@H](NC(=O)[C@H](C)NC(=O)CNC(=O)[C@H](Cc1ccccc1)NC(=O)[C@H](CC(N)=O)NC(=O)[C@@H]1CCCN1C(=O)[C@H](CO)NC(=O)[C@H](CO)NC(=O)[C@H](Cc1c[nH]cn1)NC(=O)[C@H](CCCNC(=N)N)NC(=O)[C@H](CC(C)C)NC(=O)[C@H](Cc1ccccc1)NC(=O)[C@H](CCCNC(=N)N)NC(=O)[C@H](C)NC(=O)[C@H](CC(C)C)NC(=O)[C@H](CCCNC(=N)N)NC(=O)[C@H](CCC(N)=O)NC(=O)[C@@H](NC(=O)[C@H](C)NC(=O)[C@@H]1CSSC[C@H](NC(=O)[C@@H](N)CCCCNC(=O)CC[C@H](NC(=O)CCCCCCCCCCCCCCCCCCC(=O)O)C(=O)O)C(=O)N[C@@H](CC(N)=O)C(=O)N[C@@H]([C@@H](C)O)C(=O)N[C@@H](C)C(=O)N[C@@H]([C@@H](C)O)C(=O)N1)[C@@H](C)O)C(=O)N1CCC[C@H]1C(=O)N[C@@H](CO)C(=O)N[C@@H](CO)C(=O)N[C@H](C(=O)N[C@@H](CC(N)=O)C(=O)N[C@H](C(=O)NCC(=O)N1CCC[C@H]1C(=O)N[C@@H](CC(N)=O)C(=O)N[C@H](C(=O)N[C@@H](Cc1ccc(O)cc1)C(N)=O)[C@@H](C)O)C(C)C)[C@@H](C)O
notes: also called compound 65
B4: in assay [1], the IC50 turned out to be 53.5 nM. In addition, the “Ratio hCT/hAmylin binding” value in assay [2] was found to be 82.4.

B5: N^ε1-[(4S)-4-carboxy-4-(19-carboxynonadecanoylamino)butanoyl]-[Ala14,Arg17,Pro21,Pro27,Pro34]-h-amylin (peptide)
peptide: K([γGlu-C20 diacid])CNTATCATQRLAAFLRHSSPNFGAIPSSTNVGPNTY-NH2
modifications: disulfide 2-7; N-terminus assumed
SMILES: CC[C@H](C)[C@H](NC(=O)[C@H](C)NC(=O)CNC(=O)[C@H](Cc1ccccc1)NC(=O)[C@H](CC(N)=O)NC(=O)[C@@H]1CCCN1C(=O)[C@H](CO)NC(=O)[C@H](CO)NC(=O)[C@H](Cc1c[nH]cn1)NC(=O)[C@H](CCCNC(=N)N)NC(=O)[C@H](CC(C)C)NC(=O)[C@H](Cc1ccccc1)NC(=O)[C@H](C)NC(=O)[C@H](C)NC(=O)[C@H](CC(C)C)NC(=O)[C@H](CCCNC(=N)N)NC(=O)[C@H](CCC(N)=O)NC(=O)[C@@H](NC(=O)[C@H](C)NC(=O)[C@@H]1CSSC[C@H](NC(=O)[C@@H](N)CCCCNC(=O)CC[C@H](NC(=O)CCCCCCCCCCCCCCCCCCC(=O)O)C(=O)O)C(=O)N[C@@H](CC(N)=O)C(=O)N[C@@H]([C@@H](C)O)C(=O)N[C@@H](C)C(=O)N[C@@H]([C@@H](C)O)C(=O)N1)[C@@H](C)O)C(=O)N1CCC[C@H]1C(=O)N[C@@H](CO)C(=O)N[C@@H](CO)C(=O)N[C@H](C(=O)N[C@@H](CC(N)=O)C(=O)N[C@H](C(=O)NCC(=O)N1CCC[C@H]1C(=O)N[C@@H](CC(N)=O)C(=O)N[C@H](C(=O)N[C@@H](Cc1ccc(O)cc1)C(N)=O)[C@@H](C)O)C(C)C)[C@@H](C)O
notes: also called compound 94
As to B5, in assay [1], the IC50 stood at 6.86 nM. Also, the “Ratio hCT/hAmylin binding” value in assay [2] was found to be 46.3.

B6: N^ε1-[(4S)-4-carboxy-4-(19-carboxynonadecanoylamino)butanoyl]-[Ala14,Arg17,Pro21,Pro27,His34]-h-amylin (peptide)
peptide: K([γGlu-C20 diacid])CNTATCATQRLAAFLRHSSPNFGAIPSSTNVGHNTY-NH2
modifications: disulfide 2-7; N-terminus assumed
SMILES: CC[C@H](C)[C@H](NC(=O)[C@H](C)NC(=O)CNC(=O)[C@H](Cc1ccccc1)NC(=O)[C@H](CC(N)=O)NC(=O)[C@@H]1CCCN1C(=O)[C@H](CO)NC(=O)[C@H](CO)NC(=O)[C@H](Cc1c[nH]cn1)NC(=O)[C@H](CCCNC(=N)N)NC(=O)[C@H](CC(C)C)NC(=O)[C@H](Cc1ccccc1)NC(=O)[C@H](C)NC(=O)[C@H](C)NC(=O)[C@H](CC(C)C)NC(=O)[C@H](CCCNC(=N)N)NC(=O)[C@H](CCC(N)=O)NC(=O)[C@@H](NC(=O)[C@H](C)NC(=O)[C@@H]1CSSC[C@H](NC(=O)[C@@H](N)CCCCNC(=O)CC[C@H](NC(=O)CCCCCCCCCCCCCCCCCCC(=O)O)C(=O)O)C(=O)N[C@@H](CC(N)=O)C(=O)N[C@@H]([C@@H](C)O)C(=O)N[C@@H](C)C(=O)N[C@@H]([C@@H](C)O)C(=O)N1)[C@@H](C)O)C(=O)N1CCC[C@H]1C(=O)N[C@@H](CO)C(=O)N[C@@H](CO)C(=O)N[C@H](C(=O)N[C@@H](CC(N)=O)C(=O)N[C@H](C(=O)NCC(=O)N[C@@H](Cc1c[nH]cn1)C(=O)N[C@@H](CC(N)=O)C(=O)N[C@H](C(=O)N[C@@H](Cc1ccc(O)cc1)C(N)=O)[C@@H](C)O)C(C)C)[C@@H](C)O
notes: also called compound 93
Take B6: the IC50 in assay [1] came to 17.8 nM. Further, the “Ratio hCT/hAmylin binding” value in assay [2] was 101.
